Source: paper PMC9512702

How the values were obtained:
[1] = target: mammalian expressed RBD (mRBD) of SARS-CoV-2 spike (SARS-CoV-2) (UniProt P0DTC2); assay: SPR
[2] = target: mammalian expressed RBD (mRBD) of SARS-CoV-2 spike (SARS-CoV-2) (UniProt P0DTC2); assay: SEC-MALS
[3] = target: mammalian expressed RBD (mRBD) of SARS-CoV-2 spike (SARS-CoV-2) (UniProt P0DTC2); assay: nanoDSF thermal shift

LCB1 (designed binder)
Kd [1]: 0.042 nM | stoichiometry N [2]: 1 LCB1:RBD | other [3]: 16 °C
